Laboratory results from IntAct's records for PubMed 16469698.

Target: mfd_ecoli mfd (UniProt P30958)

Substance: DNA-directed RNA polymerase subunit beta (Escherichia coli (strain K12)) (from UniProt P0A8V2) E119A
- effect of a mutation on the interaction: decreasing interaction
